T1: soluble H-2K^b (K^bsol), empty heterodimer of truncated K^b heavy chain and murine β-2 microglobulin (murine), P01901
T1 chain 1: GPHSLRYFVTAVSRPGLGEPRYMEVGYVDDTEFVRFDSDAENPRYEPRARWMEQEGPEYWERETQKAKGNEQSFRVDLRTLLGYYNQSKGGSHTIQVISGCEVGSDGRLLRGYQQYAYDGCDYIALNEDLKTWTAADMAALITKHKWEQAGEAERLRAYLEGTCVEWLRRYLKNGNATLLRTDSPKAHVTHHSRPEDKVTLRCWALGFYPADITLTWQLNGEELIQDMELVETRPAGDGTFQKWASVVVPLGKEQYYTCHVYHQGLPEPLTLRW
T1 chain 2: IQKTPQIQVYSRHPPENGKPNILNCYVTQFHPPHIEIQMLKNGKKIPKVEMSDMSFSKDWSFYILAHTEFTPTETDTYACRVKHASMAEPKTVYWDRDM

B1: OVA-10C peptide (peptide)
peptide: SIINFEKLTE
modifications: not checked
B2: OVA-8 peptide (ovalbumin 257-264) (peptide)
peptide: SIINFEKL
modifications: not checked
B3: OVA-24 peptide (peptide)
peptide: EQLESIINFEKLTEWTSSNVMEER
modifications: not checked
B4: OVA-10N peptide (peptide)
peptide: LESIINFEKL
modifications: not checked
B5: OVA-9C peptide (peptide)
peptide: SIINFEKLT
modifications: not checked

Target: T1, soluble H-2K^b (K^bsol), empty …

| Binder | Kd |
| --- | --- |
| B1 | 14 nM |
| B2 | 4.1 nM |
| B3 | 71000 nM |
| B4 | 280 nM |
| B5 | 11 nM |

Reference: US6461867
